This note sets out measurements from patent US20230340160A1 (published 2023).

For the assay, the target named is human MCSP expressed on tumor cells (human, UniProt Q6UVK1 30-2322). Nature of the assay: cell-based or functional assay.
human MCSP expressed on tumor cells, sequence (Q6UVK1 30-2322): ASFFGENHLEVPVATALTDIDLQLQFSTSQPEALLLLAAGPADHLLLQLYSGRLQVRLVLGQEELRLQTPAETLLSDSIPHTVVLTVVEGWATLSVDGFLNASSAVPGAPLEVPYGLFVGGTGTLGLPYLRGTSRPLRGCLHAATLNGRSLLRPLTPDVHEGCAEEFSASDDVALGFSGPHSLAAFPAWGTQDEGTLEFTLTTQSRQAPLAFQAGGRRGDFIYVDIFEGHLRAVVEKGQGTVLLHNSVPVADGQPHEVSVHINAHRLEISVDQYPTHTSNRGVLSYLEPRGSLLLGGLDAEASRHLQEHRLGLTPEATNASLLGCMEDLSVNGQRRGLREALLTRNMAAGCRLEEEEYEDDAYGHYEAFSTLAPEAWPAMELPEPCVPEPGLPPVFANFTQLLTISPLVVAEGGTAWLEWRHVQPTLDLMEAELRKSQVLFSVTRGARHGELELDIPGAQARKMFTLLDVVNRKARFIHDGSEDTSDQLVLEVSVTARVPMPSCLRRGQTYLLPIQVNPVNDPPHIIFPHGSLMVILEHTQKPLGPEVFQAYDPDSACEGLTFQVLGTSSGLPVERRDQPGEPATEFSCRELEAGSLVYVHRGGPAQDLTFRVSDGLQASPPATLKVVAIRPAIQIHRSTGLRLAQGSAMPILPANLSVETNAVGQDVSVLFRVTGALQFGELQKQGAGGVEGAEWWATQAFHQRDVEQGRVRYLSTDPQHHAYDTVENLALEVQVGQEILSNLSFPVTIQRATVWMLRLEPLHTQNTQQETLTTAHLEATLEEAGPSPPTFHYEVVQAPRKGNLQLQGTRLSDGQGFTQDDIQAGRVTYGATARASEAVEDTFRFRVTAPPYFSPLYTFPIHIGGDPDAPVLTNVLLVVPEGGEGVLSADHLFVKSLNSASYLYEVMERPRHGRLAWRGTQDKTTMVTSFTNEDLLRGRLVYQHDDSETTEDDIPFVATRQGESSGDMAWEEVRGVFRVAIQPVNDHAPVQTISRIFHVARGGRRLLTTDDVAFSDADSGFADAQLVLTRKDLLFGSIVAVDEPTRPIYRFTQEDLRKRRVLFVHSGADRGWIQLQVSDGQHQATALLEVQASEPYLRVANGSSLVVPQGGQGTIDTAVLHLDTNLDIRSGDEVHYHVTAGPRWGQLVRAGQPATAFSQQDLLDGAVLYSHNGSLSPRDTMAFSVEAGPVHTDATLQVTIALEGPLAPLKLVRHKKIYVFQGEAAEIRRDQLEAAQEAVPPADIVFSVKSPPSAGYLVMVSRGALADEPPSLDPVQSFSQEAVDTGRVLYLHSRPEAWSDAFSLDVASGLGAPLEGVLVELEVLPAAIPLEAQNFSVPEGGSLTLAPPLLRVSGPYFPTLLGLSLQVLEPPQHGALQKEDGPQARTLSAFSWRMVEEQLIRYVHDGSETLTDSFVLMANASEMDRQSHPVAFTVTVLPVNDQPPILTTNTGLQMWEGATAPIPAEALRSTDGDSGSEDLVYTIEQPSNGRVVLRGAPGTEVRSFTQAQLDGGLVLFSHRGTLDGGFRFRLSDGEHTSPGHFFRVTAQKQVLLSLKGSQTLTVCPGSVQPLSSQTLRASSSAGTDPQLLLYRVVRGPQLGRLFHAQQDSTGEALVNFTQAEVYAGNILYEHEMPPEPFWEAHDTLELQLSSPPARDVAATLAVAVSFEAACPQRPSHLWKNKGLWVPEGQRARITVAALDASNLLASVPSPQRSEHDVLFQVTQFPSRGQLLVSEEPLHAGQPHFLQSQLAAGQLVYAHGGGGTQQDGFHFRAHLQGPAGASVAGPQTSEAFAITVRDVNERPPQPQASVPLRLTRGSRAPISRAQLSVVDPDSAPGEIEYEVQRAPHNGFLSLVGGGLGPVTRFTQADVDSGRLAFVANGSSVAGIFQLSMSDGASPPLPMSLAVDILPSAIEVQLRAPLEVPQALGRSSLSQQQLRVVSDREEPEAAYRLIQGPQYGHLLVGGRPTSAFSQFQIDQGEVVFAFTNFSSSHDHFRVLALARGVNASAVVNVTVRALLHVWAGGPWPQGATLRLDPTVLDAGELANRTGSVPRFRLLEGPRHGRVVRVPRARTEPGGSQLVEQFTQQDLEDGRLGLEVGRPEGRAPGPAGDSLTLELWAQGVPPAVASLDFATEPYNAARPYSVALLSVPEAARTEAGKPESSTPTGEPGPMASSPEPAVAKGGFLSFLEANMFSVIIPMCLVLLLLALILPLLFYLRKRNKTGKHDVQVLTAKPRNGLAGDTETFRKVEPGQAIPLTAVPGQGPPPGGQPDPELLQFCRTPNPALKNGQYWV

B1: CD3/MCSP “1+1 IgG Crossfab”; VL/VH exchange (LC007/V9) (bispecific antibody)
heavy: DIQMTQSPSSLSASVGDRVTITCRASQDIRNYLNWYQQKPGKAPKLLIYYTSRLESGVPSRFSGSGSGTDYTLTISSLQPEDFATYYCQQGNTLPWTFGQGTKVEIKSSASTKGPSVFPLAPSSKSTSGGTAALGCLVKDYFPEPVTVSWNSGALTSGVHTFPAVLQSSGLYSLSSVVTVPSSSLGTQTYICNVNHKPSNTKVDKKVEPKSCGGGGSGGGGSEVQLQESGPGLVKPSQSLSLTCSVTGYSITSGYYWNWIRQFPGNKLEWMGYITYDGSNNYNPSLKNRISITRDTSKNQFFLKLNSVTTEDTATYYCADFDYWGQGTTLTVSSASTKGPSVFPLAPSSKSTSGGTAALGCLVKDYFPEPVTVSWNSGALTSGVHTFPAVLQSSGLYSLSSVVTVPSSSLGTQTYICNVNHKPSNTKVDKKVEPKSCDKTHTCPPCPAPEAAGGPSVFLFPPKPKDTLMISRTPEVTCVVVDVSHEDPEVKFNWYVDGVEVHNAKTKPREEQYNSTYRVVSVLTVLHQDWLNGKEYKCKVSNKALGAPIEKTISKAKGQPREPQVCTLPPSRDELTKNQVSLSCAVKGFYPSDIAVEWESNGQPENNYKTTPPVLDSDGSFFLVSKLTVDKSRWQQGNVFSCSVMHEALHNHYTQKSLSLSPGK
chain: not shown
light 1: DIVLTQSPSSLSASLGDRVTISCSASQGIRNYLNWYQQRPDGTVKLLIYYTSSLHSGVPSRFSGSGSGTDYSLTISNLEPEDIATYYCQQYSKLPWTFGGGTKLEIKRTVAAPSVFIFPPSDEQLKSGTASVVCLLNNFYPREAKVQWKVDNALQSGNSQESVTEQDSKDSTYSLSSTLTLSKADYEKHKVYACEVTHQGLSSPVTKSFNRGEC
light 2: EVQLVESGGGLVQPGGSLRLSCAASGYSFTGYTMNWVRQAPGKGLEWVALINPYKGVSTYNQKFKDRFTISVDKSKNTAYLQMNSLRAEDTAVYYCARSGYYGDSDWYFDVWGQGTLVTVSSASVAAPSVFIFPPSDEQLKSGTASVVCLLNNFYPREAKVQWKVDNALQSGNSQESVTEQDSKDSTYSLSSTLTLSKADYEKHKVYACEVTHQGLSSPVTKSFNRGEC
Take B1: the “EC50 of killing (LDH release) of MV-3 cells, human PBMCs, E:T 10:1, 21 h” value turned out to be 40.9 pM and the “EC50 of killing (LDH release) of WM266-4 cells, human PBMCs, E:T 10:1, 21 h” value came to 28.4 pM.

B2: “2+1 IgG Crossfab (CL/CH1)”; CL/CH1 exchange (M4-3 ML2/V9) (bispecific antibody)
heavy 1: not shown
heavy 2: QVQLQESGPGLVKPSQTLSLTCTVSGGSITSGYYWNWIRQHPGKGLEWIGYITYDGSNNYNPSLKSRVTISRDTSKNQFSLKLSSVTAADTAVYYCADFDYWGQGTLVTVSSASTKGPSVFPLAPSSKSTSGGTAALGCLVKDYFPEPVTVSWNSGALTSGVHTFPAVLQSSGLYSLSSVVTVPSSSLGTQTYICNVNHKPSNTKVDKKVEPKSCDKTHTCPPCPAPEAAGGPSVFLFPPKPKDTLMISRTPEVTCVVVDVSHEDPEVKFNWYVDGVEVHNAKTKPREEQYNSTYRVVSVLTVLHQDWLNGKEYKCKVSNKALGAPIEKTISKAKGQPREPQVCTLPPSRDELTKNQVSLSCAVKGFYPSDIAVEWESNGQPENNYKTTPPVLDSDGSFFLVSKLTVDKSRWQQGNVFSCSVMHEALHNHYTQKSLSLSPGK
light 1: not shown
light 2: DIQMTQSPSSLSASVGDRVTITCRASQDIRNYLNWYQQKPGKAPKLLIYYTSRLESGVPSRFSGSGSGTDYTLTISSLQPEDFATYYCQQGNTLPWTFGQGTKVEIKSSASTKGPSVFPLAPSSKSTSGGTAALGCLVKDYFPEPVTVSWNSGALTSGVHTFPAVLQSSGLYSLSSVVTVPSSSLGTQTYICNVNHKPSNTKVDKKVEPKSC
In the case of B2, the “EC50 of killing (LDH release) of MV-3 cells, human PBMCs, E:T 10:1, 27 h” value was roughly 11.7 pM and the “EC50 of killing (LDH release) of WM266-4 cells, human PBMCs, E:T 10:1, 26 h” value stood at 12.9 pM.

B3: “2+1 IgG Crossfab (VL/VH)”; VL/VH exchange (M4-3 ML2/V9) (bispecific antibody)
heavy 1: not shown
heavy 2: B2 heavy 2
light 1: not shown
light 2: B1 light 2
Regarding B3, the “EC50 of killing (LDH release) of MV-3 cells, human PBMCs, E:T 10:1, 27 h” value was roughly 82.2 pM and the “EC50 of killing (LDH release) of WM266-4 cells, human PBMCs, E:T 10:1, 26 h” value worked out at 16.8 pM.
